Results from a protein production outcome set (Wang et al. 2014).

Assay: label from the status in PepcDB records

Protein production, failed:
MLEIVAAIFIVLLGSGICSCAEAALFSVPLVKVRQLSQSNNPSAIALQAIRHRMNRPIGTIVVLNNIFNIVGSITIGALATKHLQDAWMGVFSGILTLLIIVFGEIIPKTLGERYATNIALLIAIPVRFLTLIFTPLVWLIEQITNPFTHGKRVPSTNEAEIKFLATLGYKEGVIEGDEEQMIQRVFQLNDLMAVDLMTPRVIITYLLGELTLAECQQDIIQSQHTRILIVDEYIDEVLGIALKQDLLTALIQGEGYKTIAELARPAQFVPEGMRADKLLKQFQEKREHLMVVIDEYGGVAGVITLEDVVEVLTGEIVDETDKNIDLQEIARKKRQALLKQRGVAP, MLEKIFNSLCSLVPKRYNMKEETNIVGIYNEHYLLSEKSNLVGALKLEGISYLSLDDKEIAQKFNERILALNEIVDGVHFKIVVKRRKIFMHHEYTQEEISNPFALEVINLWEQGVEDVYQNFYYLIFETKNDSIKGYLERFKKKITTNELENIQENNRQDEVKYQENYFIGFDNFNLLDKSKILYSIINNVKNMLSGLFVEKIDANSLLNFYAEYINGVPSEYTFARGRLHDGMINSDVHFKKDFFTHIHNGKEIFKRFISIKTYDIDKIVSTALSSVLHLSLEFDVILNIDNIPKAKAEKRIETKRKRANKSIRVEIDELNDMIKTDRVLMQEISLNILVHAKTKTDLDSACIEITNLLKQKGIVSTQESIGMLPMFFSFFPNRNRLNFRKRLLSSQNIASLIILEKQNCGFSRNSWGDRHLTIFRNQDKSPYLFNFHAYEAKRKNDMVSGHTIIFGGTGAGKTTLIEFLITNCFKYEDLSILALDRNNGMRVMTEFLDGQYNDSNDFYINPFSLKDTSANCTFLVSWLAFMLNIDEDTKDEKEKKTLSALSKTIRVCYNNITKQGGAIFKLRDFKDTLEIDYLDSKDILEKESSKDLYKHSTDCLDFAKKLSVIDMDALSSSKKDFNLAVLYLFYKVMNRAKLENKPFYIFIDEAKSVIENPIMLAKIKDTLAQARKLNGVLTLAFQDINQLDGVEGAKSIIENAAQVILYPTNNFEKLESYGILLSPIEKSFLNKTPLNARQVLVKNLLTQSSVFLEINLEKLNSTSKKFLRAYNSSASSVFELETLKKDNPKDYKEIYLTKE, MLEKLLSAIKQKVSNYFLGVLPKSYSMSEENNILGLYDEHFLLTKNENLVGILRLEGVSYTHLSTEQLQDLFTERQMALDSLEKVVARLVVKRRKIDHQQNIQSDSQYLQAILNQFENKEVYENQYFLVLESTHSLHGVLEHKKKSLMHANRENFKDILSYKAHFLQETLKSLEIQLKNYAPKLLSSKEVLNFYAEYINGFDLPLKPLVGGYLSDSYIASSITFEKDYFIQESFNQKTYNRLIGIKAYESERITSIAIGALLYQETPLDIIFSIEPMSVHKTLSFLKERAKFSMSNLVKNELLEYQELVKTKRLSMQKFALNILIKAPSLENLDAQTSLVLGLLFKENLVGVIETFGLKGGYFSFFPERIHLNHRLRFLTSKALACLMVFERQNLGFKANSWGNSPLSVFKNLDYSPFLFNFHNQEVSHKNAKEIARVNGHTLIIGATGSGKSTLISFLMMSALKYQNMRLLAFDRMQGLYSFTKFFKGHYHDGQSFSINPFCLEPNLQNLEFLQSFFLSMFDLAPSRDKEALEDMNAISSAIKSLYETLYPKAFSLLDFKETLKRTSSNQLGLSLEPYLNNPLFNALNDAFNSNAFLNVINLDTITQNPKDLGLLAYYLFYKILEESRKNDSGFLVFLDEFKSYVENDLLNTKINALITQARKANGVVVLALQDIYQLSGVKNAHSFLSNMGTLILYPQKNARELKHNFNVPLSETEISFLENTPLYARQVLVKNLGNGSSNMIDVSLESLGRYLKIFNSDSSHVSKVKALQKDYPTEWREKLLRSLEHHHHHH, MLEKNKPENHATDKHGLLSAPIPETLRKMTVPMTMGMIAILMFNLVDTFFISLLGTHALAAISYTFPVTFAVNCITMGIGMGLSTNIGRLLGQGHAPQAARFTTHGLLLAVLLVAIASSIGFATIAPLFRFLGATDDLIPLIEQYMQVWYLTIPLLVIPMAGNSAIRATGDTKTPAKIMMLAGLINGMLDPLLIFGYGPFPELGIQGAAIASAFSWLGALCGSFYVLVKREKLLAQPQWASLKQDWQQTLKIGTPAALSNAMNPLSGAILMMLLSSHGTAAVAAYGAAQRIESILILVLMSLTSALTPFMAQNLGAKNPQRAFSGLFLSMRFAVVFQGFIFLMMVPLSIPLAALFSQEETVKNLLWHYLLVVPFSYGFQGIVMMLVSGLNAMHKPLRAFQWSFMRLFVFTLPAAWVGSQVYSIEGLFIGIALGNTLGGLLGYMFALRERKLTLIEQNSAS, MLELFLKSFLTLFVVMDPVGLVPVFVALAGDRPHRTQVLIARKAVLVAGGLLTFFYFFGRELLGHLGISLEALRIAGGVLLFRIATEMVFAHHERETEEERDEALSRADISVFPLAIPLIAGPGALASVLVLGAEAKGVPYGFAVVLFTAYLVLFLAYLFLRGATAVRRALGRTGVNVVTRVLGLLLAALAVQYVADGVRGLL
